Test results reported in patent US20130102527A1.
Each block holds one substance with its values, some of them ahead of it.

Experiments:
Assay in all cases: cell-based or functional assay
[1] = biological target: proteasome β2 subunit (trypsin-like site) in human cells and cell extracts (human) (UniProt Q99436)
[2] = biological target: trypsin-like site (β2 subunit) of yeast 20S proteasome (S. cerevisiae) (UniProt P25043)
[3] = biological target: proteasome β5 subunit (chymotrypsin-like site) in human cells and cell extracts (human) (UniProt P28074)
Sequence of proteasome β5 subunit (chymotrypsin-like site) in human cells and cell extracts (human) (P28074 60-263): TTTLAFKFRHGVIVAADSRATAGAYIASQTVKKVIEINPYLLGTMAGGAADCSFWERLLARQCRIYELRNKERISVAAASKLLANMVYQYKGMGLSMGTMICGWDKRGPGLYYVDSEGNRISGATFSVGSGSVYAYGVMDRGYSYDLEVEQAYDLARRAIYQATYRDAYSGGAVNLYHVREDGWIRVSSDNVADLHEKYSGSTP

[4] = biological target: chymotrypsin-like site (β5 subunit) of yeast 20S proteasome (S. cerevisiae) (UniProt P30656)
Sequence of chymotrypsin-like site (β5 subunit) of yeast 20S proteasome (S. cerevisiae) (P30656 76-287): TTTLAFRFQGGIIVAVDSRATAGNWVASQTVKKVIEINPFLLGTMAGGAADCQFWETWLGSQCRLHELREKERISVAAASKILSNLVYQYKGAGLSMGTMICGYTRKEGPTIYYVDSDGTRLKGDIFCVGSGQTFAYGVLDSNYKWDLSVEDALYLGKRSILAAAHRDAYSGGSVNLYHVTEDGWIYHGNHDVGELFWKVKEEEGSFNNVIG

[5] = biological target: trypsin-like site (β2 subunit) of 26S proteasomes purified from rabbit muscle (rabbit) (UniProt G1SWK8)
Sequence of trypsin-like site (β2 subunit) of 26S proteasomes purified from rabbit muscle (rabbit) (G1SWK8 entry or part of it): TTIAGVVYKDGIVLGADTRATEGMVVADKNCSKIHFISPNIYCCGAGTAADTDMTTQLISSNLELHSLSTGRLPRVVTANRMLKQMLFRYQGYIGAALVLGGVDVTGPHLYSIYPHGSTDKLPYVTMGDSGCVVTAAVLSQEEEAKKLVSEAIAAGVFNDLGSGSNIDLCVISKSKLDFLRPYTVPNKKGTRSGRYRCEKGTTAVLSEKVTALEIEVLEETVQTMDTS

[6] = biological target: caspase-like site (β1 subunit) of 26S proteasomes purified from rabbit muscle (rabbit)
[7] = biological target: chymotrypsin-like site (β5 subunit) of 26S proteasomes purified from rabbit muscle (rabbit) (UniProt G1T4Q9)
Sequence of chymotrypsin-like site (β5 subunit) of 26S proteasomes purified from rabbit muscle (rabbit) (G1T4Q9 entry or part of it): as the sequence (P28074 60-263) above, with E197D counted along it

[8] = biological target: proteasome β1 subunit (caspase-like site) in human cells and cell extracts (human) (UniProt P28072)
Sequence of proteasome β1 subunit (caspase-like site) in human cells and cell extracts (human) (P28072 35-239): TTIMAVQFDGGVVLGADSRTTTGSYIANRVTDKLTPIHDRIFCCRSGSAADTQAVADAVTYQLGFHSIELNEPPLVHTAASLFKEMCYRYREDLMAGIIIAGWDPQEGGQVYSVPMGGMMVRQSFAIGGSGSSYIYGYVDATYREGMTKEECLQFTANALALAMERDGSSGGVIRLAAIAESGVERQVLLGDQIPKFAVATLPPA

Sequence of proteasome β2 subunit (trypsin-like site) in human cells and cell extracts (human) (Q99436 44-277): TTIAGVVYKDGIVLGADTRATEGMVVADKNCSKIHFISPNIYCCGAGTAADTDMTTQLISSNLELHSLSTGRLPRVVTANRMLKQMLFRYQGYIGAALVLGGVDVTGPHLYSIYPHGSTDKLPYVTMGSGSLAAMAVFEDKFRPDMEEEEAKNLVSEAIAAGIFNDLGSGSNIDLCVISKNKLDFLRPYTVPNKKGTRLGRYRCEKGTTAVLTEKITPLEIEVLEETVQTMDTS
Sequence of trypsin-like site (β2 subunit) of yeast 20S proteasome (S. cerevisiae) (P25043 30-261): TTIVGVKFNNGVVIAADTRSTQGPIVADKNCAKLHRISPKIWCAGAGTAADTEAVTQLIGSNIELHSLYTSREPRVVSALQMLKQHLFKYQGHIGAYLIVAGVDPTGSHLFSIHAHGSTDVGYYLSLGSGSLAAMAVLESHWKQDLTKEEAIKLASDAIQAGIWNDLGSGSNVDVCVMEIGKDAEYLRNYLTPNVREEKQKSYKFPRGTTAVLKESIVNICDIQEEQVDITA

IC50 (µM) for sites: Tr-L; NCI-H929 cells, 6 h, PROTEASOMEGLO [1]: 0.2 µM | IC50 (µM) for sites: Tr-L; RPMI-8226 cells, 6 h, PROTEASOMEGLO [1]: 3.2 µM | IC50 (µM) for yeast 20S proteasome: Tr-L [2]: 1.6 µM | IC50 (µM) for sites: Chym-L; NCI-H929 cells, 6 h, PROTEASOMEGLO [3]: 13 µM | IC50 (µM) for sites: Chym-L; RPMI-8226 cells, 6 h, PROTEASOMEGLO [3]: 15 µM | IC50 (µM) for yeast 20S proteasome: Chym-L [4]: 19.3 µM
Substance: HMB-Val-Ser-Phe(4-CH2NH2)-VS (48) (peptide)

IC50 (µM) for sites in 26S proteasomes: Tr-L [5]: 0.11 µM | IC50 (µM) for sites in 26S proteasomes: Casp-L [6]: 23 µM | IC50 (µM) for sites in 26S proteasomes: Chym-L [7]: 0.04 µM
Substance: HMB-Val-Ser-Phe(4-NH2)-VS (49) (peptide)

Inhibition of active sites (% control): β2; KMS-12-BM, 0.012 µM LU-005, 1 h [1]: -21% | Inhibition of active sites (% control): β2; KMS-12-BM, 0.037 µM LU-005, 1 h [1]: -12% | Inhibition of active sites (% control): β2; KMS-12-BM, 0.11 µM LU-005, 1 h [1]: 4.7% | Inhibition of active sites (% control): β2; KMS-12-BM, 0.33 µM LU-005, 1 h [1]: 3% | Inhibition of active sites (% control): β2; KMS-12-BM, 1.0 µM LU-005, 1 h [1]: 29% | Inhibition of active sites (% control): β2; KMS-18, 0.037 µM LU-005, 1 h [1]: -13% | Inhibition of active sites (% control): β2; KMS-18, 0.11 µM LU-005, 1 h [1]: 12% | Inhibition of active sites (% control): β2; KMS-18, 0.33 µM LU-005, 1 h [1]: 24% | Inhibition of active sites (% control): β2; KMS-18, 1.0 µM LU-005, 1 h [1]: 38% | Inhibition of active sites (% control): β2; KMS-18, 3.0 µM LU-005, 1 h [1]: 50% | Inhibition of active sites (% control): β2; KMS-18, 9.0 µM LU-005, 1 h [1]: 62% | Inhibition of active sites (% control): β2; MM1.R, 0.004 µM LU-005, 1 h [1]: 6.5% | Inhibition of active sites (% control): β2; MM1.R, 0.011 µM LU-005, 1 h [1]: 5% | Inhibition of active sites (% control): β2; MM1.R, 0.043 µM LU-005, 1 h [1]: 5% | Inhibition of active sites (% control): β2; MM1.R, 0.11 µM LU-005, 1 h [1]: 23% | Inhibition of active sites (% control): β2; NCI-H929, 0.0014 µM LU-005, 1 h [1]: -9% | Inhibition of active sites (% control): β2; NCI-H929, 0.004 µM LU-005, 1 h [1]: -13% | Inhibition of active sites (% control): β2; NCI-H929, 0.011 µM LU-005, 1 h [1]: -6% | Inhibition of active sites (% control): β2; NCI-H929, 0.043 µM LU-005, 1 h [1]: 6% | Inhibition of active sites (% control): β2; NCI-H929, 0.11 µM LU-005, 1 h [1]: 11% | Inhibition of active sites (% control): β2; RPMI-8226, 0.012 µM LU-005, 1 h [1]: -21% | Inhibition of active sites (% control): β2; RPMI-8226, 0.037 µM LU-005, 1 h [1]: 1% | Inhibition of active sites (% control): β2; RPMI-8226, 0.11 µM LU-005, 1 h [1]: 3% | Inhibition of active sites (% control): β2; RPMI-8226, 0.33 µM LU-005, 1 h [1]: 13% | Inhibition of active sites (% control): β2; RPMI-8226, 1.0 µM LU-005, 1 h [1]: 22% | Inhibition of active sites (% control): β5; KMS-12-BM, 0.012 µM LU-005, 1 h [3]: 16% | Inhibition of active sites (% control): β5; KMS-12-BM, 0.037 µM LU-005, 1 h [3]: 48% | Inhibition of active sites (% control): β5; KMS-12-BM, 0.11 µM LU-005, 1 h [3]: 56% | Inhibition of active sites (% control): β5; KMS-12-BM, 0.33 µM LU-005, 1 h [3]: 81% | Inhibition of active sites (% control): β5; KMS-12-BM, 1.0 µM LU-005, 1 h [3]: 95% | Inhibition of active sites (% control): β5; KMS-18, 0.037 µM LU-005, 1 h [3]: 14% | Inhibition of active sites (% control): β5; KMS-18, 0.11 µM LU-005, 1 h [3]: 47% | Inhibition of active sites (% control): β5; KMS-18, 0.33 µM LU-005, 1 h [3]: 69% | Inhibition of active sites (% control): β5; KMS-18, 1.0 µM LU-005, 1 h [3]: 85% | Inhibition of active sites (% control): β5; KMS-18, 3.0 µM LU-005, 1 h [3]: 94% | Inhibition of active sites (% control): β5; KMS-18, 9.0 µM LU-005, 1 h [3]: 97% | Inhibition of active sites (% control): β5; MM1.R, 0.004 µM LU-005, 1 h [3]: 17% | Inhibition of active sites (% control): β5; MM1.R, 0.011 µM LU-005, 1 h [3]: 31% | Inhibition of active sites (% control): β5; MM1.R, 0.043 µM LU-005, 1 h [3]: 54% | Inhibition of active sites (% control): β5; MM1.R, 0.11 µM LU-005, 1 h [3]: 76% | Inhibition of active sites (% control): β5; NCI-H929, 0.0014 µM LU-005, 1 h [3]: 22% | Inhibition of active sites (% control): β5; NCI-H929, 0.004 µM LU-005, 1 h [3]: 22% | Inhibition of active sites (% control): β5; NCI-H929, 0.011 µM LU-005, 1 h [3]: 48% | Inhibition of active sites (% control): β5; NCI-H929, 0.043 µM LU-005, 1 h [3]: 72% | Inhibition of active sites (% control): β5; NCI-H929, 0.11 µM LU-005, 1 h [3]: 86% | Inhibition of active sites (% control): β5; RPMI-8226, 0.012 µM LU-005, 1 h [3]: 16% | Inhibition of active sites (% control): β5; RPMI-8226, 0.037 µM LU-005, 1 h [3]: 45% | Inhibition of active sites (% control): β5; RPMI-8226, 0.11 µM LU-005, 1 h [3]: 49% | Inhibition of active sites (% control): β5; RPMI-8226, 0.33 µM LU-005, 1 h [3]: 62% | Inhibition of active sites (% control): β5; RPMI-8226, 1.0 µM LU-005, 1 h [3]: 82% | Inhibition of active sites (% control): β1; KMS-12-BM, 0.012 µM LU-005, 1 h [8]: -34% | Inhibition of active sites (% control): β1; KMS-12-BM, 0.037 µM LU-005, 1 h [8]: -1% | Inhibition of active sites (% control): β1; KMS-12-BM, 0.11 µM LU-005, 1 h [8]: 3% | Inhibition of active sites (% control): β1; KMS-12-BM, 0.33 µM LU-005, 1 h [8]: 6% | Inhibition of active sites (% control): β1; KMS-12-BM, 1.0 µM LU-005, 1 h [8]: 11% | Inhibition of active sites (% control): β1; KMS-18, 0.037 µM LU-005, 1 h [8]: 0% | Inhibition of active sites (% control): β1; KMS-18, 0.11 µM LU-005, 1 h [8]: 21% | Inhibition of active sites (% control): β1; KMS-18, 0.33 µM LU-005, 1 h [8]: 29% | Inhibition of active sites (% control): β1; KMS-18, 1.0 µM LU-005, 1 h [8]: 32% | Inhibition of active sites (% control): β1; KMS-18, 3.0 µM LU-005, 1 h [8]: 39% | Inhibition of active sites (% control): β1; KMS-18, 9.0 µM LU-005, 1 h [8]: 42% | Inhibition of active sites (% control): β1; MM1.R, 0.004 µM LU-005, 1 h [8]: 6% | Inhibition of active sites (% control): β1; MM1.R, 0.011 µM LU-005, 1 h [8]: 3% | Inhibition of active sites (% control): β1; MM1.R, 0.043 µM LU-005, 1 h [8]: 6% | Inhibition of active sites (% control): β1; MM1.R, 0.11 µM LU-005, 1 h [8]: 27% | Inhibition of active sites (% control): β1; NCI-H929, 0.0014 µM LU-005, 1 h [8]: -14% | Inhibition of active sites (% control): β1; NCI-H929, 0.004 µM LU-005, 1 h [8]: -7% | Inhibition of active sites (% control): β1; NCI-H929, 0.011 µM LU-005, 1 h [8]: 5.5% | Inhibition of active sites (% control): β1; NCI-H929, 0.043 µM LU-005, 1 h [8]: 15% | Inhibition of active sites (% control): β1; NCI-H929, 0.11 µM LU-005, 1 h [8]: 6% | Inhibition of active sites (% control): β1; RPMI-8226, 0.012 µM LU-005, 1 h [8]: -34% | Inhibition of active sites (% control): β1; RPMI-8226, 0.037 µM LU-005, 1 h [8]: 16% | Inhibition of active sites (% control): β1; RPMI-8226, 0.11 µM LU-005, 1 h [8]: 23% | Inhibition of active sites (% control): β1; RPMI-8226, 0.33 µM LU-005, 1 h [8]: 37% | Inhibition of active sites (% control): β1; RPMI-8226, 1.0 µM LU-005, 1 h [8]: 37%
Substance: LU-005 (peptide)

IC50 (µM) for sites: Casp-L [6]: 30 µM
Substance: N3-Phe-Ala(4-pyridine)-Leu-Phe(4-CH2NH2-TFA)-VS (50) (peptide)
